Experimental findings from patent publication US20250154279A1 (BEIGENE, published 2025) are described below.

The target in experiment [1] is T1, human CD137 (recombinant antigen of the ELISA of Example 2 and the SPR of Example 3; construct not stated) (human, UniProt Q07011 24-186, limits assumed).
T1 construct: also called huCD137
The experiment in a line: SPR, antibody captured on anti-human Fc surface, Test 1. An excerpt:
(§1) For affinity determination, antibodies were captured by anti-human Fe surface, and used in the affinity—assay based on surface plasmon resonance (SPR) technology.

Experiment [2] deals with T1, human CD137 (recombinant antigen of the …). The experiment in a line: SPR.
In experiment [3] the target is T2, human CD137 over-expressed on HuT78 cells (HuT78/CD137) (human, UniProt Q07011 24-255).
T2 construct: also called Hut78/huCD137; native CD137
Nature of the experiment: flow cytometry on live HuT78/CD137 cells. As for the experimental part: To evaluate the binding activity of anti-CD137 antibody to bind native CD137 on live cells, HuT78 cells were engineered to over-express human CD137. Live HuT78/CD137 cells were seeded in a 96-well plate, and were incubated with a series of dilutions of anti-CD137 antibody. Goat anti-Human IgG was used as secondary antibody to detect antibody binding to the cell surface. EC₅₀ values for dose-dependent binding to human native CD137 were determined by fitting the dose-response data to the four-parameter logistic model with GraphPad Prism™. The humanized VHHs retained sub-nanomolar binding affinity to native CD137.

Experiment [4] addresses T1, human CD137 (recombinant antigen of the …). Nature of the experiment: SPR, antibody captured on anti-human Fc surface, Test 2.
Source text: as §1

For experiment [5] the target is unchanged. The experiment in a line: SPR. This is another data set of the same source.
The target in another experiment is T3, huGPC3-His (human, UniProt P51654 25-559, limits assumed).
T3 construct: not shown: His tag
The experiment in a line: SPR (BIAcore T-200), BE-774 captured by anti-kappa antibody, huGPC3-His flowed over. The protocol:
(§2) Briefly, anti-kappa antibody was immobilized on an activated CM5 biosensor chip (Cat.: BR100839, GE Life Sciences). […] Then a serial dilution (6.0 nM to 2150 nM) of human CD137 ECD-mIgG2a or huGPC3-His were flowed over the chip surface and changes in surface plasmon resonance signals were analyzed to calculate the association rates (kₒₙ) and dissociation rates (koff) by using the one-to-one Langmuir binding model (BIA Evaluation Software, GE Life Sciences). The equilibrium dissociation constant (KD) was calculated as the ratio koff/kₒₙ. […] Goat anti-Human IgG was used as secondary antibody to detect antibody binding to the cell surface. EC₅₀ values for dose-dependent binding to human native CD137 were determined by fitting the dose-response data to the four-parameter logistic model with GraphPad Prism™. […] Goat anti-Human IgG was used as secondary antibody to detect antibody binding to the cell surface. EC₅₀ values for dose-dependent binding to human native GPC3 were determined by fitting the dose-response data to the four-parameter logistic model with GraphPad Prism™.

A further experiment deals with T4, human CD137 ECD-mIgG2a (human).
T4 construct: also called huCD137
The experiment in a line: SPR (BIAcore T-200), BE-774 captured by anti-kappa antibody, human CD137 ECD-mIgG2a flowed over. As for the experimental part:
as §2

The target in experiment [6] is T2, human CD137 over-expressed on HuT78 …. The experiment in a line: flow cytometry on live Hut78/huCD137 cells. The protocol:
as §2

For experiment [7], the target named is T5, human GPC3 expressed on HepG2 cells (human, UniProt P51654 25-554).
T5 construct: also called native huGPC3; native GPC3
Nature of the experiment: flow cytometry on HepG2 cells. As for the experimental part:
as §2

T3 sequence (P51654 25-559 limits assumed): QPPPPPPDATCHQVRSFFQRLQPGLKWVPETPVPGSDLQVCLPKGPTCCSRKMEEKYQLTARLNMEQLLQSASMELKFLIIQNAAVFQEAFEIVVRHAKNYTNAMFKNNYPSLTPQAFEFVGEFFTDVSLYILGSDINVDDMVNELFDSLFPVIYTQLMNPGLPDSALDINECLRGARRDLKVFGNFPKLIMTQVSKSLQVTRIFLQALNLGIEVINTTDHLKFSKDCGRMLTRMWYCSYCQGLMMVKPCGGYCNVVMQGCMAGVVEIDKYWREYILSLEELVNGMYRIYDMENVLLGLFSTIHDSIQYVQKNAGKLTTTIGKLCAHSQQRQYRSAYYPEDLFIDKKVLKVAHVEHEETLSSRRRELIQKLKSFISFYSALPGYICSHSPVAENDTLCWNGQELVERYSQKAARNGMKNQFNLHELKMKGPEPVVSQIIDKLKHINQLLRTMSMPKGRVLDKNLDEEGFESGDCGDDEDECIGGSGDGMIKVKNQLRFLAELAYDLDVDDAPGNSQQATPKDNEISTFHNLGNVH
T2 sequence (Q07011 24-255 limits assumed): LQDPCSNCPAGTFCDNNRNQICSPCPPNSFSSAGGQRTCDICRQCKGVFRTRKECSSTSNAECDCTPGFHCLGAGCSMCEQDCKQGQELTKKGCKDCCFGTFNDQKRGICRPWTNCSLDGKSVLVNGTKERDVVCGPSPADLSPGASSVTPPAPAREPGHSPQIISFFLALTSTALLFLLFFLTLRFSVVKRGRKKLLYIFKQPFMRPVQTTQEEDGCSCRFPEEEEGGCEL
T5 sequence (P51654 25-554 limits assumed): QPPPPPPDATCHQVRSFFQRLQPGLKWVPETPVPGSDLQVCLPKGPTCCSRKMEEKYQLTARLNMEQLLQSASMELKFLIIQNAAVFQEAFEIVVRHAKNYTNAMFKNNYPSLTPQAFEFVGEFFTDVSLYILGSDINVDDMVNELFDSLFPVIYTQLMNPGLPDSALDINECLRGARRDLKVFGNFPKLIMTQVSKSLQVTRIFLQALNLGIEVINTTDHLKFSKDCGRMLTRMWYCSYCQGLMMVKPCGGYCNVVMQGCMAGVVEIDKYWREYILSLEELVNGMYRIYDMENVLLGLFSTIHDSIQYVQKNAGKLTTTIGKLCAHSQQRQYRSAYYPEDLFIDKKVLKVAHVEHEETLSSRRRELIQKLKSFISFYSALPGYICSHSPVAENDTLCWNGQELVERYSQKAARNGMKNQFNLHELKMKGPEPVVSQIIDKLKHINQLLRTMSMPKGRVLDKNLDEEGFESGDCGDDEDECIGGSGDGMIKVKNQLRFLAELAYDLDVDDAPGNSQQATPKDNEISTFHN

B1: BGA-9612 (chimeric Fc-VHH, as compared with the humanized VHHs in Examples 3-4) (VHH)
chain: EPKSSDKTHTCPPCPAPPAAGPSVFLFPPKPKDTLMISRTPEVTCVVVDVSHEDPEVKFNWYVDGVEVHNAKTKPREEQYNSTYRVVSVLTVLHQDWLNGKEYKCKVSNKALAAPIEKTISKAKGQPREPQVYTLPPSREEMTKNQVSLTCLVKGFYPSDIAVEWESNGQPENNYKTTPPVLDSDGSFFLYSKLTVDKSRWQQGNVFSCSVMHEALHNHYTQKSLSLSPGKGGGGSQVQLVESGGGTVQPGDSLRLSCAASGRTFDNYAVGWFRQAPGKERQYVGTYWSGYAHYGDFENNRFTISRDNAKNTVYLQMDNLKPEDTAVYYCAISLKYPMATVTPDYQGQGTQVTVSS
As for B1, the Kd in experiment [1] worked out at 20.3 nM; in experiment [2], 20.3 nM; in [4] it was 15.2 nM. Further, the koff in [1] stood at 0.000419 s⁻¹; in [2], 0.000419 s⁻¹; in experiment [4], 0.000754 s⁻¹. For the same molecule, the kon is 20700 M⁻¹ s⁻¹ in [1], 20700 M⁻¹ s⁻¹ in experiment [2] and 49500 M⁻¹ s⁻¹ in experiment [4]. In [3], this molecule gave an EC50 of 0.85 nM.

B2: BGA-6582-Y47W (VHH)
chain: EPKSSDKTHTCPPCPAPPAAGPSVFLFPPKPKDTLMISRTPEVTCVVVDVSHEDPEVKFNWYVDGVEVHNAKTKPREEQYNSTYRVVSVLTVLHQDWLNGKEYKCKVSNKALAAPIEKTISKAKGQPREPQVYTLPPSREEMTKNQVSLTCLVKGFYPSDIAVEWESNGQPENNYKTTPPVLDSDGSFFLYSKLTVDKSRWQQGNVFSCSVMHEALHNHYTQKSLSLSPGKGGGGSEVQLLESGGGLVQPGGSLRLSCAASGRTFDNYAVGWFRQAPGKERQWVGTYWSGYAHYGDFENNRFTISRDNSKNTVYLQMNSLRAEDTAVYYCAISLKYPMATVTPDYQGQGTLVTVSS
Regarding B2, the binding result in experiment [5] is recorded as “no binding”.

B3: BGA-3544 (humanized VHH, Fc-VHH format) (VHH)
chain: EPKSSDKTHTCPPCPAPPAAGPSVFLFPPKPKDTLMISRTPEVTCVVVDVSHEDPEVKFNWYVDGVEVHNAKTKPREEQYNSTYRVVSVLTVLHQDWLNGKEYKCKVSNKALAAPIEKTISKAKGQPREPQVYTLPPSREEMTKNQVSLTCLVKGFYPSDIAVEWESNGQPENNYKTTPPVLDSDGSFFLYSKLTVDKSRWQQGNVFSCSVMHEALHNHYTQKSLSLSPGKGGGGSEVQLVESGGGLVQPGGSLRLSCAASGRTFDNYAVGWFRQAPGKEREYVGTYWSGYAHYGDFEKGRFTISRDNSKNTVYLQMNNLRPEDTAVYYCAISLKYPMATVTPDYQGQGTQVTVSS
For B3, the EC50 in [3] came out at 0.85 nM. Further, in experiment [4], the Kd is 17.6 nM, the koff is 0.000999 s⁻¹ and the kon worked out at 56900 M⁻¹ s⁻¹.

B4: BGA-7031 (humanized VHH, Fc-VHH format) (VHH)
chain: EPKSSDKTHTCPPCPAPPAAGPSVFLFPPKPKDTLMISRTPEVTCVVVDVSHEDPEVKFNWYVDGVEVHNAKTKPREEQYNSTYRVVSVLTVLHQDWLNGKEYKCKVSNKALAAPIEKTISKAKGQPREPQVYTLPPSREEMTKNQVSLTCLVKGFYPSDIAVEWESNGQPENNYKTTPPVLDSDGSFFLYSKLTVDKSRWQQGNVFSCSVMHEALHNHYTQKSLSLSPGKGGGGSEVQLVESGGGLVQPGGSLRLSCAASGRTFDNYAVGWFRQAPGKEREYVGTYWSGYAHYGDFENNRFTISRDNSKNTVYLQMNNLRPEDTAVYYCAISLKYPMATVTPDYQGQGTQVTVSS
In turn, B4 showed an EC50 in [3] of 0.88 nM. Further, in [4], the Kd was 11.7 nM, the koff is 0.000719 s⁻¹ and the kon was 61600 M⁻¹ s⁻¹.

B5: BGA-6582-V78L (VHH)
chain: EPKSSDKTHTCPPCPAPPAAGPSVFLFPPKPKDTLMISRTPEVTCVVVDVSHEDPEVKFNWYVDGVEVHNAKTKPREEQYNSTYRVVSVLTVLHQDWLNGKEYKCKVSNKALAAPIEKTISKAKGQPREPQVYTLPPSREEMTKNQVSLTCLVKGFYPSDIAVEWESNGQPENNYKTTPPVLDSDGSFFLYSKLTVDKSRWQQGNVFSCSVMHEALHNHYTQKSLSLSPGKGGGGSEVQLLESGGGLVQPGGSLRLSCAASGRTFDNYAVGWFRQAPGKERQYVGTYWSGYAHYGDFENNRFTISRDNSKNTLYLQMNSLRAEDTAVYYCAISLKYPMATVTPDYQGQGTLVTVSS
Turning to B5, in [5], the Kd was found to be 13.6 nM, the off-rate constant (koff) is 0.000593 s⁻¹ and the association rate constant (kon) was 43500 M⁻¹ s⁻¹.

B6: BGA-6582-R45L (VHH)
chain: EPKSSDKTHTCPPCPAPPAAGPSVFLFPPKPKDTLMISRTPEVTCVVVDVSHEDPEVKFNWYVDGVEVHNAKTKPREEQYNSTYRVVSVLTVLHQDWLNGKEYKCKVSNKALAAPIEKTISKAKGQPREPQVYTLPPSREEMTKNQVSLTCLVKGFYPSDIAVEWESNGQPENNYKTTPPVLDSDGSFFLYSKLTVDKSRWQQGNVFSCSVMHEALHNHYTQKSLSLSPGKGGGGSEVQLLESGGGLVQPGGSLRLSCAASGRTFDNYAVGWFRQAPGKELQYVGTYWSGYAHYGDFENNRFTISRDNSKNTVYLQMNSLRAEDTAVYYCAISLKYPMATVTPDYQGQGTLVTVSS
Consider B6, for which, in experiment [5], the Kd came to 14.8 nM, the koff was 0.000413 s⁻¹ and the kon was 27800 M⁻¹ s⁻¹.

B7: BGA-6582 (humanized VHH from BGA-9612, Fc-VHH format) (VHH)
chain: EPKSSDKTHTCPPCPAPPAAGPSVFLFPPKPKDTLMISRTPEVTCVVVDVSHEDPEVKFNWYVDGVEVHNAKTKPREEQYNSTYRVVSVLTVLHQDWLNGKEYKCKVSNKALAAPIEKTISKAKGQPREPQVYTLPPSREEMTKNQVSLTCLVKGFYPSDIAVEWESNGQPENNYKTTPPVLDSDGSFFLYSKLTVDKSRWQQGNVFSCSVMHEALHNHYTQKSLSLSPGKGGGGSEVQLLESGGGLVQPGGSLRLSCAASGRTFDNYAVGWFRQAPGKERQYVGTYWSGYAHYGDFENNRFTISRDNSKNTVYLQMNSLRAEDTAVYYCAISLKYPMATVTPDYQGQGTLVTVSS
In the case of B7, in experiment [1], the Kd amounted to 27.7 nM, the koff worked out at 0.000588 s⁻¹ and the association rate constant (kon) amounted to 21200 M⁻¹ s⁻¹. For the same molecule, in experiment [5], the Kd was found to be 13.6 nM, the koff amounted to 0.000593 s⁻¹ and the on-rate constant (kon) turned out to be 43500 M⁻¹ s⁻¹. Besides, in [2], the Kd is 27.7 nM, the koff is 0.000588 s⁻¹ and the kon turned out to be 21200 M⁻¹ s⁻¹.

B8: BE-774 (anti-GPC3 x CD137 bispecific antibody, GPC3 antibody + VHH BGA-9612, IgG1mf Fc-YTE) (bispecific antibody)
heavy: QVQLVQSGAEVKKPGASVKVSCKASGYTFTDYEMHWVRQAPGQGLEWMGALDPKTGDTAYSQKFKGRVTLTADKSTSTAYMELSSLTSEDTAVYYCTRFYSYTYWGQGTLVTVSSASTKGPSVFPLAPSSKSTSGGTAALGCLVKDYFPEPVTVSWNSGALTSGVHTFPAVLQSSGLYSLSSVVTVPSSSLGTQTYICNVNHKPSNTKVDKKVEPKSCDKTHTCPPCPAPPAAGPSVFLFPPKPKDTLYITREPEVTCVVVDVSHEDPEVKFNWYVDGVEVHNAKTKPREEQYNSTYRVVSVLTVLHQDWLNGKEYKCKVSNKALAAPIEKTISKAKGQPREPQVYTLPPSREEMTKNQVSLTCLVKGFYPSDIAVEWESNGQPENNYKTTPPVLDSDGSFFLYSKLTVDKSRWQQGNVFSCSVMHEALHNHYTQKSLSLSPGKGGGGSEVQLVESGGGTVQPGDSLRLSCAASGRTFDNYAVGWFRQAPGKERQYVGTYWSGYAHYGDFENNRFTISRDNAKNTVYLQMDNLKPEDTAVYYCAISLKYPMATVTPDYQGQGTQVTVSS
light: DVVMTQSPLSLPVTPGEPASISCRSSQSLVHSNRNTYLHWYLQKPGQSPQLLIYKVSNRFSGVPDRFSGSGSGTDFTLKISRVEAEDVGVYYCSQNTHVPPTFGQGTKLEIKRTVAAPSVFIFPPSDEQLKSGTASVVCLLNNFYPREAKVQWKVDNALQSGNSQESVTEQDSKDSTYSLSSTLTLSKADYEKHKVYACEVTHQGLSSPVTKSFNRGEC
In the experiment with huGPC3-His, B8 came in with a Kd of 1.01 nM, a koff of 0.00022 s⁻¹ and a kon of 218000 M⁻¹ s⁻¹. In the experiment with human CD137 ECD-mIgG2a, this molecule yielded a Kd of 0.529 nM, a koff of 0.000425 s⁻¹ and a kon of 804000 M⁻¹ s⁻¹. The molecule further had an EC50 in experiment [6] of 0.7 nM. In experiment [7], this molecule gave a concentration for a half-maximal effect (EC50) of 0.9 nM.
